From article PMC5793090 (Toxins, 2017)
Values joined by “and” are separate entries in the source; they are usually repeats but may differ in a detail not shown here. Equal values may be shown once.

T1: GST-CNF1 (full-length Cytotoxic Necrotizing Factor 1 of Escherichia coli as GST fusion) (Escherichia coli, UniProt Q47106 1-1014, DyLight488 Maleimide label in the flow cytometry experiments only)
T1 construct: also called full-length CNF1; full toxin
T1 sequence: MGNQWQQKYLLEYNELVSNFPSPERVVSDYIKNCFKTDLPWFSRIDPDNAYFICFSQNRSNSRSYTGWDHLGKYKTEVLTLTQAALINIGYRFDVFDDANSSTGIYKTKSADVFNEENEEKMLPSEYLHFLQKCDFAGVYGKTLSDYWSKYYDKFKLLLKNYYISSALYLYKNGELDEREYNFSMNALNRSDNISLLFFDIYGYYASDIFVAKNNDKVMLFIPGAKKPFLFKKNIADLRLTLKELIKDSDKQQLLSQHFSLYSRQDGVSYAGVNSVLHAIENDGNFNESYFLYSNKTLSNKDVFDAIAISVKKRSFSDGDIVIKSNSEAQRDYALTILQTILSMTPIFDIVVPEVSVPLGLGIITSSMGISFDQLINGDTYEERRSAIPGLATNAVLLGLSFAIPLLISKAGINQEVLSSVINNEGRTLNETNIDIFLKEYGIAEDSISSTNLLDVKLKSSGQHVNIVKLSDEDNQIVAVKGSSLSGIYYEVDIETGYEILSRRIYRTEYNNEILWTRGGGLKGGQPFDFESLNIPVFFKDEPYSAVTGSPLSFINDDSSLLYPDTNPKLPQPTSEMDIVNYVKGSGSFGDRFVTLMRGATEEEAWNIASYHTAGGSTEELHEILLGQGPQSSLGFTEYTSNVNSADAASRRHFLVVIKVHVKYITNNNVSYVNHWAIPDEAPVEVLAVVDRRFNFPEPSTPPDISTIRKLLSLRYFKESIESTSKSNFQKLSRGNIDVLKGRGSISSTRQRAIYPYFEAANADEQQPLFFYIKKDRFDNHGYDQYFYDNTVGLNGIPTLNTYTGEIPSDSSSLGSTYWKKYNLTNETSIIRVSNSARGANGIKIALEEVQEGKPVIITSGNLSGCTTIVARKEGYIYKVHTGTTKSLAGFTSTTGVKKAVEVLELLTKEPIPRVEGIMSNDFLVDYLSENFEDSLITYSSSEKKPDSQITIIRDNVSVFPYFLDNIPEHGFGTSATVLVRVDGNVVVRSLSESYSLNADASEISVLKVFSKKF

T2: GST-CNF1 (full-length Cytotoxic Necrotizing Factor 1 of Escherichia coli as GST fusion) (Escherichia coli, UniProt Q47106 1-1014, DyLight488 Maleimide label in the flow cytometry experiments only)
T2 chain: T1 sequence

B1: CNF1 (720–1014), GST-tag removed (domain or fragment)
chain: SIESTSKSNFQKLSRGNIDVLKGRGSISSTRQRAIYPYFEAANADEQQPLFFYIKKDRFDNHGYDQYFYDNTVGLNGIPTLNTYTGEIPSDSSSLGSTYWKKYNLTNETSIIRVSNSARGANGIKIALEEVQEGKPVIITSGNLSGCTTIVARKEGYIYKVHTGTTKSLAGFTSTTGVKKAVEVLELLTKEPIPRVEGIMSNDFLVDYLSENFEDSLITYSSSEKKPDSQITIIRDNVSVFPYFLDNIPEHGFGTSATVLVRVDGNVVVRSLSESYSLNADASEISVLKVFSKKF
notes: also called CNF1 catalytic unit
B2: Recombinant human extracellular rLu/BCAM with Fc-tag (Fc fusion)
chain: EVRLSVPPLVEVMRGKSVILDCTPTGTHDHYMLEWFLTDRSGARPRLASAEMQGSELQVTMHDTRGRSPPYQLDSQGRLVLAEAQVGDERDYVCVVRAGAAGTAEATARLNVFAKPEATEVSPNKGTLSVMEDSAQEIATCNSRNGNPAPKITWYRNGQRLEVPVEMNPEGYMTSRTVREASGLLSLTSTLYLRLRKDDRDASFHCAAHYSLPEGRHGRLDSPTFHLTLHYPTEHVQFWVGSPSTPAGWVREGDTVQLLCRGDGSPSPEYTLFRLQDEQEEVLNVNLEGNLTLEGVTRGQSGTYGCRVEDYDAADDVQLSKTLELRVAYLDPLELSEGKVLSLPLNSSAVVNCSVHGLPTPALRWTKDSTPLGDGPMLSLSSITFDSNGTYVCEASLPTVPVLSRTQNFTLLVQGSPELKTAEIEPKADGSWREGDEVTLICSARGHPDPKLSWSQLGGSPAEPIPGRQGWVSSSLTLKVTSALSRDGISCEASNPHGNKRHVFHFGTVSPQTSQA
notes: also called rLu/BCAM-Fc; recombinant Lu/BCAM; source: bought: Hölzel Diagnostika Handels GmbH
B3: Lu12-Fc (Fc fusion)
chain: EVRLSVPPLVEVMRGKSVILDCTPTGTHDHYMLEWFLTDRSGARPRLASAEMQGSELQVTMHDTRGRSPPYQLDSQGRLVLAEAQVGDERDYVCVVRAGAAGTAEATARLNVFAKPEATEVSPNKGTLSVMEDSAQEIATCNSRNGNPAPKITWYRNGQRLEVPVEMNPEGYMTSRTVREASGLLSLTSTLYLRLRKDDRDASFHCAAHYSLPEGRHGRLDSPTFH

What was measured:
Lu12-Fc = assay: SPR
[1] = molecular target: B2; assay: SEC; details: both partners purified
[2] = molecular target: B2; assay: small-angle X-ray scattering (SAXS); details: both partners purified
[3] = molecular target: T1, GST-CNF1 (full-length Cytotoxic …); assay: far-Western, overlay or dot blot; CNF proteins spotted on a nitrocellulose membrane, incubated with 5 µM rLu/BCAM in TBST for 30 min, then blocked with 5% milk; bound rLu/BCAM detected with an anti-Lu/BCAM antibody; details: both partners purified
SEC = molecular target: the molecule itself; assay: SEC
[4] = molecular target: T2, GST-CNF1 (full-length Cytotoxic …); assay: SPR

GST-CNF1 (full-length Cytotoxic Necrotizing Factor 1 of Escherichia coli as GST fusion) (from UniProt Q47106 1-1014) (natural protein)
Kd (Lu12-Fc): 2 nM

B1
stoichiometry N [1]: 6 Lu/BCAM per CNF1
stoichiometry N [2]: 1 CNF1 molecules per rLu/BCAM assembly and 2 CNF1 molecules per rLu/BCAM assembly

B2
binding result [3]: binds
stoichiometry N (SEC): 6

B3
koff [4]: 3e-05 s⁻¹
